Measured values: article doi:10.1101/2023.04.26.538363 (bioRxiv, 2023)
Positions count from the first letter of the chain named. In names and notes the source's numbering stands.

T1: Escherichia coli inclusion body-associated protein B (E. coli, UniProt P0C058 1-142)
T1 sequence: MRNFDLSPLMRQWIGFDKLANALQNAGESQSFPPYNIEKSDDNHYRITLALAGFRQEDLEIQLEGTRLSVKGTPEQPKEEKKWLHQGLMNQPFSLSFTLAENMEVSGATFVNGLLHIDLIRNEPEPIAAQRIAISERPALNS

B1: Escherichia coli inclusion body-associated protein A, wild type (natural protein)
chain: MRNFDLSPLYRSAIGFDRLFNHLENNQSQSNGGYPPYNVELVDENHYRIAIAVAGFAESELEITAQDNLLVVKGAHADEQKERTYLYQGIAERNFERKFQLAENIHVRGANLVNGLLYIDLERVIPEAKKPRRIEIN
B2: Escherichia coli IbpA R93A mutant (natural protein)
chain: B1 chain with R93A

What was measured:
[1] = target: the molecule itself; test: sucrose density gradient centrifugation
[2] = target: T1, Escherichia coli inclusion …; test: sucrose density gradient centrifugation

Row | Binder | binding result [1] | binding result [2]
1 | B1 | binds | binds
2 | B2 | binds | binds
